The source of these data is patent US20230129258A1 (Bicycle, published 2023).

For experiment [1], the target named is T1, human CD137 extracellular domain (human, UniProt Q07011 24-186, biotinylated where captured on the streptavidin chip).
T1 construct: extracellular domain; Section 17 says only 'Recombinant human CD137 (R&D systems)'; also called CD137 (human); Recombinant human CD137 (R&D systems)
Description: SPR, direct binding of BCY11863 to immobilized human CD137, 1:1 fit; avidity from two CD137 bicycles.

The target of experiment [2] is T2, human Nectin-4 extracellular domain (human, UniProt Q96NY8 32-349, biotinylated where captured on the streptavidin chip).
T2 construct: extracellular domain; also called Nectin-4 (human); Biotinylated - Nectin-4 extracellular domain
T2 sequence (looked up): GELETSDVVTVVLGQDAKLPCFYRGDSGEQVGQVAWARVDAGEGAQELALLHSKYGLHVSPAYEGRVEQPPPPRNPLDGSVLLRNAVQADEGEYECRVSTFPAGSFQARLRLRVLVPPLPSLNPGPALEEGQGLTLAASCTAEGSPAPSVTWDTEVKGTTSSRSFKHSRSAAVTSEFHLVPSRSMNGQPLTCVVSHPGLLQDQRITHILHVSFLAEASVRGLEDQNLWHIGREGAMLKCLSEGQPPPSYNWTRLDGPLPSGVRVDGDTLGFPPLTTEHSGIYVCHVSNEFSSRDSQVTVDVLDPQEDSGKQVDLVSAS
Briefly: SPR direct binding, biotinylated Nectin-4 ECD on streptavidin chip, 37° C., n = 9.

Experiment [3] has as its target T2, human Nectin-4 extracellular domain. Description: SPR sandwich assay, BCY11863 captured on biotinylated human CD137, soluble Nectin-4 ECD passed over, n = 4.
Experiment [4] has as its target T3, CD137 on Jurkat reporter cells (Promega kit CS196005) (UniProt Q07011 24-255, limits assumed). Description: cell-based or functional assay.
Experiment [5] has as its target T2, human Nectin-4 extracellular domain. Briefly: SPR, one example sensorgram (FIG. 21A), immobilized Nectin-4. On the technique in general: In SPR one partner is held on a chip, and binding of the other changes the refractive index at the surface.
Experiment [6] concerns the target T4, mouse CD137 extracellular domain (mouse, UniProt P20334 24-187).
T4 construct: extracellular domain
T4 sequence (looked up): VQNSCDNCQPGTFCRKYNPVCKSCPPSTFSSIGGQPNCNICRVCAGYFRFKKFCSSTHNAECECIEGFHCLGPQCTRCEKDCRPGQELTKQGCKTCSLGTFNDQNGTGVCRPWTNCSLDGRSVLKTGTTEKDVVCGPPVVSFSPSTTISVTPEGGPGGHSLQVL
Briefly: SPR dual binding, BCY11863 captured on biotinylated human Nectin-4, n = 2.

The target in experiment [7] is T5, rat CD137 extracellular domain (rat, UniProt Q4W8J3 24-189).
T5 sequence: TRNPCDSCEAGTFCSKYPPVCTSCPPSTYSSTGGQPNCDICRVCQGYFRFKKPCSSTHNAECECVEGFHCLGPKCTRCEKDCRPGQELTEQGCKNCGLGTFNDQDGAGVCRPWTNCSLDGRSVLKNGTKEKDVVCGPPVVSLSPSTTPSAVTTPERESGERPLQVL
The description is as above.

Experiment [8] has as its target T1, human CD137 extracellular domain. Description: SPR, direct binding of BCY11863 to immobilized human CD137, 1:1 fit; the text says the reported KD may be an overestimation (avidity).
For experiment [9] the target is unchanged. Description: SPR dual binding, BCY11863 captured on biotinylated human Nectin-4, soluble CD137 ECD passed over, n = 4.
Experiment [10] addresses T3, CD137 on Jurkat reporter cells (Promega …). Description: cell-based or functional assay. This is another data set of the same source.
The target in experiment [11] is T2, human Nectin-4 extracellular domain. Description: SPR, direct binding of BCY11863 to immobilized human Nectin-4, 1:1 fit.

Starred links: 1 amine or outer side, 2 acyl side, 3 side chain; linkers in the order of their positions; H or OH if unused. Positions of bridges follow the written chain, without caps; N, C: chain ends. Non-standard residues stand in square brackets, D forms with d. Chains are numbered I, II in the order given. No end group written: not given here. dLys(PYA) = D-lysine Nε-acylated with 4-pentynoic acid, clicked (triazole) to the linker azide, O=C(CCc1cn([*:3])nn1)NCCCC[C@@H](N[*:1])C(=O)[*:2]; TATA = O=C(CC[*:1])N1CN(C(=O)CC[*:2])CN(C(=O)CC[*:3])C1; 1Nal = N[C@@H](Cc1cccc2ccccc12)C(=O)O; Hyp = O=C(O)[C@@H]1C[C@@H](O)CN1; hArg = N=C(N)NCCCC[C@H](N)C(=O)O; tBuAla = CC(C)(C)C[C@H](N)C(=O)O; Nle = CCCC[C@H](N)C(=O)O

T1 sequence (Q07011 24-186): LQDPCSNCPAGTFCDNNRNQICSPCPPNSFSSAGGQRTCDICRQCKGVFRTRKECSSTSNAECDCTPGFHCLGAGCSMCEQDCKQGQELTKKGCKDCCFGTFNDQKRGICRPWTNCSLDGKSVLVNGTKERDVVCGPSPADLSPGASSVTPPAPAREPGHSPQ
T3 sequence (Q07011 24-255 limits assumed): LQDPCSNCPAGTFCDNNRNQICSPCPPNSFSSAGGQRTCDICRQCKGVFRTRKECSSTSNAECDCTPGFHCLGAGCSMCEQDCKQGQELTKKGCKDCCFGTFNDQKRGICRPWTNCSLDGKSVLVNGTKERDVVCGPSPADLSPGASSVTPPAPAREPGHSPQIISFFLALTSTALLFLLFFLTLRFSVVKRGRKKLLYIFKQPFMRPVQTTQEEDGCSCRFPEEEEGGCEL

B1: heterotandem bicyclic peptide complex BCY11863 (peptide)
peptide 1: CP[1Nal][dD]CM[hArg]DWSTP[Hyp]WC
peptide 2: Ac-C[tBuAla]PE[dLys(PYA)]PYCFADPY[Nle]CA
modifications: linker I:1-I:5-I:15, II:1-II:8-II:15 via TATA; not fully specified (bridges); also: 1:2 complex: BCY8116 + 2x BCY8928
notes: also called Nectin-4/CD137 heterotandem
In turn, B1 yielded a kon in experiment [1] of 952000 M⁻¹ s⁻¹. Moreover, the Kd in experiment [2] was 5.2 nM. The Kd in experiment [3] stood at 12 nM. In experiment [4], the “Fold improvement in EC50 over BCY10000 on same plate, NCI-H292” value amounted to 4.56 fold and the “Fold improvement in Emax over BCY10000 on same plate, NCI-H292” value came to 2.16 fold. The Kd in experiment [5] amounted to 4.1 nM. The binding result in experiment [6] was “no binding”. In addition, in experiment [7], the binding result is reported as “no binding”. In [8], the Kd is 0.368 nM. For the same molecule, the Kd in experiment [9] worked out at 6.3 nM. Also, in experiment [10], the “Arithmetic mean EC50 (nM), CT26#7 co-culture” value stood at 0.14 nM; the “Arithmetic mean EC50 (nM), HT1376 co-culture” value stood at 0.52 nM; the “Arithmetic mean EC50 (nM), MC38#13 co-culture” value amounted to 0.31 nM; the “Arithmetic mean EC50 (nM), MDA-MB-468 co-culture” value worked out at 0.23 nM. Besides, in [10], the “Arithmetic mean EC50 (nM), NCI-H292 co-culture” value stood at 0.28 nM; the “Arithmetic mean EC50 (nM), NCI-H322 co-culture” value turned out to be 0.33 nM; the “Arithmetic mean EC50 (nM), T47D co-culture” value is 0.42 nM. In [11], this molecule yielded a koff of 0.00229 s⁻¹ and a kon of 561000 M⁻¹ s⁻¹.

As a reminder, the kon is the rate constant with which the complex forms. Read a high kon as fast association. The term koff denotes a measure of how fast the partners let go of each other. Lower therefore signals a long-lived complex.
